In patent US20150232557A1 (APTEVO RESEARCH AND DEVELOPMENT, published 2015):

B1: humanized TSC249 Scorpion (huVL-VH#2 107-1A4 scFv-Fc-DRA222 scFv) (bispecific antibody)
chain: DIQMTQSPSAMSASVGDRVTITCRASKSISKYLAWFQQKPGKVPKLRIHSGSTLQSGVPSRFSGSGSGTEFTLTISSLQPEDFATYYCQQHIEYPWTFGQGTKVEIKRGGGGSGGGGSGGGGSQVQLVQSGAEVKKPGASVKVSCKASGYTFTDYYMHWVRQAPGQGLEWMGYFNPYNDYTRYAQKFQGRVTMTRDTSISTAYMELSSLRSDDTAVYYCARSDGYYDAMDYWGQGTTVTVSSSEPKSSDKTHTCPPCPAPEAAGAPSVFLFPPKPKDTLMISRTPEVTCVVVDVSHEDPEVKFNWYVDGVEVHNAKTKPREEQYNSTYRVVSVLTVLHQDWLNGKAYACAVSNKALPAPIEKTISKAKGQPREPQVYTLPPSRDELTKNQVSLTCLVKGFYPSDIAVEWESNGQPENNYKTTPPVLDSDGSFFLYSKLTVDKSRWQQGNVFSCSVMHEALHNHYTQKSLSLSPGQRHNNSSLNTGTQMAGHSPNSQVQLVESGGGVVQPGRSLRLSCKASGYTFTRSTMHWVRQAPGQGLEWIGYINPSSAYTNYNQKFKDRFTISADKSKSTAFLQMDSLRPEDTGVYFCARPQVHYDYNGFPYWGQGTPVTVSSGGGGSGGGGSGGGGSAQDIQMTQSPSSLSASVGDRVTMTCSASSSVSYMNWYQQKPGKAPKRWIYDSSKLASGVPARFSGSGSGTDYTLTISSLQPEDFATYYCQQWSRNPPTFGGGTKLQITSSS
notes: also called anti-PSMA x anti-CD3 bispecific polypeptide homodimer
B2: TSC194 (huVL-VH#2 107-1A4 scFv-Fc-Cris7 scFv) (bispecific antibody)
chain: DIQMTQSPSAMSASVGDRVTITCRASKSISKYLAWFQQKPGKVPKLRIHSGSTLQSGVPSRFSGSGSGTEFTLTISSLQPEDFATYYCQQHIEYPWTFGQGTKVEIKRGGGGSGGGGSGGGGSQVQLVQSGAEVKKPGASVKVSCKASGYTFTDYYMHWVRQAPGQGLEWMGYFNPYNDYTRYAQKFQGRVTMTRDTSISTAYMELSSLRSDDTAVYYCARSDGYYDAMDYWGQGTTVTVSSSEPKSSDKTHTCPPCPAPEAAGAPSVFLFPPKPKDTLMISRTPEVTCVVVDVSHEDPEVKFNWYVDGVEVHNAKTKPREEQYNSTYRVVSVLTVLHQDWLNGKAYACAVSNKALPAPIEKTISKAKGQPREPQVYTLPPSRDELTKNQVSLTCLVKGFYPSDIAVEWESNGQPENNYKTTPPVLDSDGSFFLYSKLTVDKSRWQQGNVFSCSVMHEALHNHYTQKSLSLSPGQRHNNSSLNTGTQMAGHSPNSQVQLVQSGGGVVQPGRSLRLSCKASGYTFTRSTMHWVRQAPGKGLEWIGYINPSSAYTNYNQKFKDRFTISADKSKSTAFLQMDSLRPEDTGVYFCARPQVHYDYNGFPYWGQGTPVTVSSGGGGSGGGGSGGGGSAQDIQMTQSPSSLSASVGDRVTMTCSASSSVSYMNWYQQKPGKAPKRWIYDSSKLASGVPARFSGSGSGTDYTLTISSLQPEDFATYYCQQWSRNPPTFGGGTKLQITR
B3: TSC228 (HD37 x DRA222 scFv heterodimer) (bispecific antibody)
chain 1: DIVLTQSPASLAVSLGQRATISCKASQSVDYDGDSYLNWYQQIPGQPPKLLIYDASNLVSGIPPRFSGSGSGTDFTLNIHPVEKVDAATYHCQQSTEDPWTFGGGTKLEIKGGGGSGGGGSGGGGASQVQLQQSGAELVRPGSSVKISCKASGYAFSSYWMNWVKQRPGQGLEWIGQIWPGDGDTNYNGKFKGKATLTADESSSTAYMQLSSLASEDSAVYFCARRETTTVGRYYYAMDYWGQGTSVTVSSSEPKSSDKTHTCPPCPAPEAAGAPSVFLFPPKPKDTLMISRTPEVTCVVVDVSHEDPEVKFNWYVDGVEVHNAKTKPREEQYNSTYRVVSVLTVLHQDWLNGKAYACAVSNKALPAPIEKTISKAKGQPREPQVYTLPPSRDELTKNQVSLTCLVKGFYPSDIAVEWESNGQPENNYKTTPPVLDSDGSFFLYSKLTVDKSRWQQGNVFSCSVMHEALHNHYTQKSLSLSPGKSRASTKGPSVFPLAPSSKSTSGGTAALGCLVKDYFPEPVTVSWNSGALTSGVHTFPAVLQSSGLYSLSSVVTVPSSSLGTQTYICNVNHKPSNTKVDKKV
chain 2: QVQLVESGGGVVQPGRSLRLSCKASGYTFTRSTMHWVRQAPGQGLEWIGYINPSSAYTNYNQKFKDRFTISADKSKSTAFLQMDSLRPEDTGVYFCARPQVHYDYNGFPYWGQGTPVTVSSGGGGSGGGGSGGGGSAQDIQMTQSPSSLSASVGDRVTMTCSASSSVSYMNWYQQKPGKAPKRWIYDSSKLASGVPARFSGSGSGTDYTLTISSLQPEDFATYYCQQWSRNPPTFGGGTKLQITSSSEPKSSDKTHTCPPCPAPEAAGAPSVFLFPPKPKDTLMISRTPEVTCVVVDVSHEDPEVKFNWYVDGVEVHNAKTKPREEQYNSTYRVVSVLTVLHQDWLNGKAYACAVSNKALPAPIEKTISKAKGQPREPQVYTLPPSRDELTKNQVSLTCLVKGFYPSDIAVEWESNGQPENNYKTTPPVLDSDGSFFLYSKLTVDKSRWQQGNVFSCSVMHEALHNHYTQKSLSLSPGKSRTVAAPSVFIFPPSDEQLKSGTASVVCLLNYFYPREAKVQWKVDNALQSGNSQESATEQDSKDSTYSLSSELTLSKADYEKHKVYACEVTHQGLSSPVTKSFNRGE
notes: TSC049 is HD37 scFv-hinge-CH2-CH3-CH1; TSC222 is DRA222 scFv-hinge-CH2-CH3-CK(YAE); also called anti-CD19 x anti-CD3 bispecific polypeptide heterodimer; TSC049 + TSC222

Key:
[1] = molecular target: T1, CD3 (human, UniProt P07766 23-207); test: cell-based or functional assay
[2] = molecular target: T1, CD3; test: flow cytometry on Jurkat (CD3+) cells, goat anti-human IgG-FITC detection
Description: Jurkat (CD3⁺) T cell leukemia cells were obtained from ATCC (Manassas, Va.), and cultured according to the protocol provided by ATCC. Binding was assessed by incubating 5×10⁵ Jurkat cells for 30 minutes at 4° C. with serially diluted bispecific molecules TSC228 or TSC249, in concentrations from 250 nM to 0.125 nM (TSC249) or 125 nM to 1 pM (TSC228). The cells were washed three times and then incubated with goat anti-human IgG-FITC (1:200 dilution) for another 30 minutes at 4° C. The cells were then washed again three times, fixed in 1% paraformaldehyde and read on a FACS-Calibur instrument.

T1 sequence (P07766 23-207): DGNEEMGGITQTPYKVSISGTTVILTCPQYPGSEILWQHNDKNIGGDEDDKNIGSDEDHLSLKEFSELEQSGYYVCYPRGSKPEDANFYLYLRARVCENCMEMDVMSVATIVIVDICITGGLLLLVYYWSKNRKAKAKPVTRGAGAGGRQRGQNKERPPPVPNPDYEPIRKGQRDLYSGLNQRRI

Binder | EC50 for RTCC [1] [pM] | EC50 [2] [nM]
B1 | 2.9 | 1.9
B2 | 2.8 | 
B3 |  | 24.5
